# Experimental data published in the supplement of paper PMC10065799, “High-throughput profiling of sequence recognition by tyrosine kinases and SH2 domains using bacterial peptide display” (eLife, 2023).
# How the values were obtained:
# [1] = target: Jak2 (UniProt O60674); experiment: phosphorylation enrichment, bacterial display (enrichment ratio); higher = better substrate or ligand; peptides without Tyr show the background
# [2] = target: Fes (UniProt P07332); experiment: as above
# [3] = test system: AncSZ; experiment: as above
# [4] = test system: c-Src; experiment: as above
# [5] = target: FGFR1 (UniProt P11362); experiment: as above
# [6] = test system: c-Abl (mouse); experiment: as above
# [7] = target: MERTK (UniProt Q12866); experiment: as above
# [8] = target: Hck (UniProt P08631); experiment: as above
# Sequence of Hck (P08631 whole entry, looked up): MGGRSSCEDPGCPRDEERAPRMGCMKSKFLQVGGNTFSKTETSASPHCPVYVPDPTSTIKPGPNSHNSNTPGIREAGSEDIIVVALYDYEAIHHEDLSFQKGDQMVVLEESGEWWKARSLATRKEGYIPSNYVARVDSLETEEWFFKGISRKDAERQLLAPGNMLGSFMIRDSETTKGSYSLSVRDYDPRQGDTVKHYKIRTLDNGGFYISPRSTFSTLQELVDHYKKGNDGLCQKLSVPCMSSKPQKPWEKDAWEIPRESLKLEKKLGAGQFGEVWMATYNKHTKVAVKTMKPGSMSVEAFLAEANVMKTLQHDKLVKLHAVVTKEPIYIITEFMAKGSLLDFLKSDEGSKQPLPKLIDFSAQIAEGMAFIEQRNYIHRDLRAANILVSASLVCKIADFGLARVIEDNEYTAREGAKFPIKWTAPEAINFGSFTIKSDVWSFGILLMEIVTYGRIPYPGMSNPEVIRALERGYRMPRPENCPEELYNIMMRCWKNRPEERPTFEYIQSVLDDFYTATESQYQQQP
# [9] = target: EPHB1 (UniProt P54762); experiment: as above
# Sequence of EPHB1 (P54762 whole entry, looked up): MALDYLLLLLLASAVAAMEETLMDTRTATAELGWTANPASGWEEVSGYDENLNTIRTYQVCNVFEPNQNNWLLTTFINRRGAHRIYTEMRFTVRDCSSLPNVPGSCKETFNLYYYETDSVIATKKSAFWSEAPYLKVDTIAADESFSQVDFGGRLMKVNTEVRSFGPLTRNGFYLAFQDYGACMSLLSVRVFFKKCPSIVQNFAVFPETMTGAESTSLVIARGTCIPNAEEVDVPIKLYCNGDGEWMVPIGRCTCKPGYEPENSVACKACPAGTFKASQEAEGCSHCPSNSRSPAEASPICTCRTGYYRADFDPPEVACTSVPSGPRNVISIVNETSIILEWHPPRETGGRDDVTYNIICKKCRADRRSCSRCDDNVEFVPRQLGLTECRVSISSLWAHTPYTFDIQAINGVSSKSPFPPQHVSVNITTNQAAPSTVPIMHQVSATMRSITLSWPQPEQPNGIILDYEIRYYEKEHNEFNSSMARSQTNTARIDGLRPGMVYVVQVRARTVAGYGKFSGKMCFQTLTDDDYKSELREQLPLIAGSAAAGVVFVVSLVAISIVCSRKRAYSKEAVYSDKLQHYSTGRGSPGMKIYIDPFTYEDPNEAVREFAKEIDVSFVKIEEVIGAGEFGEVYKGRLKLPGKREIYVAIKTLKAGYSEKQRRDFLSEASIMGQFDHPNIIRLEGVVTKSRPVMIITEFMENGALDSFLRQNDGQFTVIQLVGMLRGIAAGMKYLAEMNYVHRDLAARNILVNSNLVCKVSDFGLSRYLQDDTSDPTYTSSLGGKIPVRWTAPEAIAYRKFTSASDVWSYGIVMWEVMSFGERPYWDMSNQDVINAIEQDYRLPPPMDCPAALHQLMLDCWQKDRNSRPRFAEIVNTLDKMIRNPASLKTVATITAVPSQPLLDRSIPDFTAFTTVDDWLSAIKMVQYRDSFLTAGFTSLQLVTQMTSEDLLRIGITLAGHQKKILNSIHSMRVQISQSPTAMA
# [10] = test system: Fer (mouse); experiment: as above
# [11] = target: Fyn (UniProt P06241); experiment: as above
# Sequence of Fyn (P06241 whole entry, looked up): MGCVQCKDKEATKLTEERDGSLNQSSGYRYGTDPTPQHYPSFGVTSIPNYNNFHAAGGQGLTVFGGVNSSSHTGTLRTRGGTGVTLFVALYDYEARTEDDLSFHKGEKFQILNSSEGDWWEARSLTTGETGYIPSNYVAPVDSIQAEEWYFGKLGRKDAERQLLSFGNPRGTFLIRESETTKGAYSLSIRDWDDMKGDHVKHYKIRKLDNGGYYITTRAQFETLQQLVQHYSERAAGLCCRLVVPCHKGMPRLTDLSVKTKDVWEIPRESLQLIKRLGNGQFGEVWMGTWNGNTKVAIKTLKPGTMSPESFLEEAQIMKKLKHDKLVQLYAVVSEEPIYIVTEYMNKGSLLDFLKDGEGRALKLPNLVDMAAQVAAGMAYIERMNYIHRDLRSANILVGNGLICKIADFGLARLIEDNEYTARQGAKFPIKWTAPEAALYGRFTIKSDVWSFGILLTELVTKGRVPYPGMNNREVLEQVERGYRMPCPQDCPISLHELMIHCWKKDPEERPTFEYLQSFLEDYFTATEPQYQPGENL
# [12] = target: EPHB2 (UniProt P29323); experiment: as above
# Sequence of EPHB2 (P29323 whole entry, looked up): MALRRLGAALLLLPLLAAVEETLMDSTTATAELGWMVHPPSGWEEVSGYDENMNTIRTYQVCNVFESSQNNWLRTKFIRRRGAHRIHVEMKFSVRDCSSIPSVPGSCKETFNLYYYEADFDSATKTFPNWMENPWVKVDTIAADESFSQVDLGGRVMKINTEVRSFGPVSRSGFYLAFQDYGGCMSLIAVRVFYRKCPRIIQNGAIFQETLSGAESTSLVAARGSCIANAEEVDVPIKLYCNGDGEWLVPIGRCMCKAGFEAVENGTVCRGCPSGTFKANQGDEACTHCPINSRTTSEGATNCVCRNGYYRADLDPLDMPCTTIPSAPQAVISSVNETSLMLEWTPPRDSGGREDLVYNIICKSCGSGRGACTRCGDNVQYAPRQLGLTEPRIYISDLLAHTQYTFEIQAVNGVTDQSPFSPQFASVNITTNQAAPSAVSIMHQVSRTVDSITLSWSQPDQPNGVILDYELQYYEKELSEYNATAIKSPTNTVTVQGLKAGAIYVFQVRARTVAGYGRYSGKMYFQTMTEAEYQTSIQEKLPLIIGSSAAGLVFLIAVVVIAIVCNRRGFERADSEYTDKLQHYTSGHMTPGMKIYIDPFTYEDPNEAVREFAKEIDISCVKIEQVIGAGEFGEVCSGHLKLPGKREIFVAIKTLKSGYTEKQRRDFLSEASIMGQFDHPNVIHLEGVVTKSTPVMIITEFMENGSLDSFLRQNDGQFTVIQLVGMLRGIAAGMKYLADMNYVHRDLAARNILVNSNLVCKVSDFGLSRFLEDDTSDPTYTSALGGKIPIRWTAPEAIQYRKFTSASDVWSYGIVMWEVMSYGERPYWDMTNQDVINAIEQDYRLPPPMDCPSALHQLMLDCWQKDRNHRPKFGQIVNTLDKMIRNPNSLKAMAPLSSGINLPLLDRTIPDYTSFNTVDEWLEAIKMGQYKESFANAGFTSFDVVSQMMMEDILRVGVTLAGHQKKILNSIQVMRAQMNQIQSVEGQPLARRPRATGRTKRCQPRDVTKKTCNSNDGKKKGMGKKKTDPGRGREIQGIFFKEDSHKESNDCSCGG
# [13] = target: FGFR3 (UniProt P22607); experiment: as above
# [14] = target: c-Src SH2; experiment: SH2 binding enrichment of the phosphorylated peptide, bacterial display (enrichment ratio); higher = better substrate or ligand; peptides without Tyr show the background
# [15] = target: Grb2 SH2 (UniProt P62993); experiment: as above
# Sequence of Grb2 SH2 (P62993 whole entry, looked up): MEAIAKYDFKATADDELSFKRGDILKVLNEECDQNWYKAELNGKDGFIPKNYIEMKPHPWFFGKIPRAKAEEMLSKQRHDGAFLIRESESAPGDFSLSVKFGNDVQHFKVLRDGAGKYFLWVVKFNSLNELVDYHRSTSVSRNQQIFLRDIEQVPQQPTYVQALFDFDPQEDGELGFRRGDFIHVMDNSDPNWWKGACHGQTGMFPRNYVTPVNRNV
# [16] = target: SHP2-C SH2; experiment: as above
# 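Wherever SH2 binding enrichment of the phosphorylated peptide, bacterial display is given: peptide library displayed on the E. coli surface as eCPX fusions, selected cells deep-sequenced, score is each peptide's frequency after selection divided by its frequency in the input.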
# 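Wherever phosphorylation enrichment, bacterial display is given: 11-residue human phosphosite peptides and single-mutation variants displayed on the E. coli surface, counted by deep sequencing, each peptide's frequency after selection divided by its frequency in the unselected input library; frequency after pTyr selection over input frequency; kinase dosed for 20-30% of maximal phosphorylation in three min.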
# Sequence of Jak2 (O60674 whole entry, looked up): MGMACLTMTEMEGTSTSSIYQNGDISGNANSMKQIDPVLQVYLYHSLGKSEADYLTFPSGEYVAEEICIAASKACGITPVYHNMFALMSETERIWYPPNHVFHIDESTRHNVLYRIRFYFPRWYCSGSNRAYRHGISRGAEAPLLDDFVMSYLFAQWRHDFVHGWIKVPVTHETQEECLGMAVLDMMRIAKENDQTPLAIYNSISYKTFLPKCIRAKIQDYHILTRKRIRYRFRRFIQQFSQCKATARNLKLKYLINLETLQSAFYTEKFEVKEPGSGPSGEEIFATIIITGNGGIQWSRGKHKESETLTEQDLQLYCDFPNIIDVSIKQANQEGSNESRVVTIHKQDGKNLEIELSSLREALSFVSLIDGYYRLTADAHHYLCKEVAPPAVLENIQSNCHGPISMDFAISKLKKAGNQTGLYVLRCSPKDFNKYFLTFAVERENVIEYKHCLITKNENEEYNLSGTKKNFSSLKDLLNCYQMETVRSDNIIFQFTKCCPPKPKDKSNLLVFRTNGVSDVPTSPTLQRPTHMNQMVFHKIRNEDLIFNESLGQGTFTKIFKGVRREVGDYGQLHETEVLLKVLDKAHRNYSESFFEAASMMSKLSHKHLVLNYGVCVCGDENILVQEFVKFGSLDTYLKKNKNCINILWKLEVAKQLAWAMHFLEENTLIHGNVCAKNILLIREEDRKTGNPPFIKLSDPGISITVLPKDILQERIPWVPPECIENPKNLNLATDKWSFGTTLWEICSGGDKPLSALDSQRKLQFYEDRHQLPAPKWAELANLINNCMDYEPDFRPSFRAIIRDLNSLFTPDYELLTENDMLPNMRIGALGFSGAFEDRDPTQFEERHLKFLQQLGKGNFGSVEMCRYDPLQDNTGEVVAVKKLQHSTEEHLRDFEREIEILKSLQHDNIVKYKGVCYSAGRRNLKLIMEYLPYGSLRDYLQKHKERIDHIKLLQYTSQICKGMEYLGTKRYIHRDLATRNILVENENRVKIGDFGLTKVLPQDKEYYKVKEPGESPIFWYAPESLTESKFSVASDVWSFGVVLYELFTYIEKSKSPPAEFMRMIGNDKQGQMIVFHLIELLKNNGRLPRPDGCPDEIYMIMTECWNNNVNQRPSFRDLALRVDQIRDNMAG
Sequence,phosphorylation enrichment [1],phosphorylation enrichment [2],phosphorylation enrichment [3],phosphorylation enrichment [4],phosphorylation enrichment [5],phosphorylation enrichment [6],phosphorylation enrichment [7],phosphorylation enrichment [8],phosphorylation enrichment [9],phosphorylation enrichment [10],phosphorylation enrichment [11],phosphorylation enrichment [12],phosphorylation enrichment [13],SH2 binding enrichment [14],SH2 binding enrichment [15],SH2 binding enrichment [16]
GESLTYVSTTF [C1orf162_Y120_A121V],0.691,1.07,0.954,0.664,0.508,0.494,0.538,0.621,0.532,0.512,0.569,0.563,0.62,0.519,0.843,0.712
GFGGGYGGVLT [KRT19_Y65_A60G_YF],0.575,0.696,0.626,0.45,0.491,0.493,0.381,0.488,0.452,0.492,0.47,0.444,0.522,0.478,1.06,0.999
GFPVHYTDMSN [DNMT3B_Y815_V818M],0.667,0.699,0.947,0.416,0.546,0.568,0.545,0.417,0.388,0.419,0.536,0.439,0.501,3.25,0.787,6.03
GFPVHYTDVSN [DNMT3B_Y815],0.51,0.653,0.661,0.398,0.439,0.5,0.526,0.433,0.477,0.708,0.43,0.485,0.686,3.96,0.793,7.67
GFSRHCEDGFP [CTNND1_Y217_Y217C_YF],0.724,0.958,0.767,0.441,0.471,0.83,0.402,0.441,0.497,0.485,0.437,0.555,0.697,0.479,0.774,0.663
GFWPRYVKVGS [NOG_Y172_R167G],0.695,0.97,0.746,0.402,0.554,0.568,0.447,0.532,0.594,0.388,0.493,0.532,0.653,0.443,0.645,0.834
GGQVFHNSEFG [FLT4_Y1333_Y1333H_YF],0.534,0.668,0.593,0.377,0.448,0.531,0.395,0.379,0.4,0.375,0.424,0.451,0.572,0.505,0.761,0.714
GGYTCCCDGKK [PROS1_Y266_Y266C],0.729,1,0.943,0.426,0.444,0.792,0.436,0.454,0.442,0.513,0.507,0.819,0.618,0.477,0.701,0.415
GGYTCYCDGKK [PROS1_Y266],1.2,1.38,0.985,0.499,0.457,0.915,0.439,0.462,0.537,0.484,0.403,0.474,0.728,0.549,0.766,0.79
GHLFANDWISI [BEST1_Y227_Y227N_YF],0.782,0.789,0.703,0.469,0.43,0.627,0.421,0.502,0.424,0.427,0.399,0.625,0.484,0.493,0.904,0.708
GIADDYDKKKL [EIF1_Y54],0.845,0.943,0.882,0.377,0.465,0.667,0.383,0.512,0.456,0.4,0.467,0.565,0.565,0.452,0.931,0.496
GIVEDYRPRFY [ACVRL1_Y421_P424R],0.619,0.952,0.7,0.464,0.409,0.585,0.674,0.537,0.375,0.519,0.447,0.615,0.521,0.481,0.882,0.757
GIVTGYLVLKE [DNMT3B_Y588_A585V],1.31,1.4,1.07,0.448,0.553,0.833,0.524,0.505,0.684,0.647,0.492,0.494,0.895,0.735,1.11,1.31
GKTQQYDCKWY [BCR_Y751],1.05,1.05,0.864,0.55,0.464,0.769,0.515,0.554,0.554,0.432,0.441,0.532,0.598,0.758,0.805,0.601
GKVFIYHGSSL [ITGA7_Y458],1.02,1.3,1.19,0.369,0.596,0.672,0.364,0.571,0.655,0.546,0.42,0.614,0.761,0.598,0.996,0.707
GLCSYYETSKM [MAGED2_Y449_R446C],1.3,1.18,1.39,1.81,6.32,0.955,1.25,0.926,1.67,1.01,0.68,1.11,4.99,1.2,0.818,0.72
GLDGRYLLRDS [SH2D1A_Y29_S28R],0.51,0.734,0.651,0.436,0.531,0.441,0.41,0.395,0.423,0.637,0.372,0.448,0.488,0.515,0.817,0.7

Sequence,phosphorylation enrichment [1],phosphorylation enrichment [2],phosphorylation enrichment [3],phosphorylation enrichment [4],phosphorylation enrichment [5],phosphorylation enrichment [6],phosphorylation enrichment [7],phosphorylation enrichment [8],phosphorylation enrichment [9],phosphorylation enrichment [10],phosphorylation enrichment [11],phosphorylation enrichment [12],phosphorylation enrichment [13],SH2 binding enrichment [14],SH2 binding enrichment [15],SH2 binding enrichment [16]
GLNKDYRMVVN [HINT1_Y94_G93D],0.566,0.605,0.652,0.415,0.51,0.447,0.424,0.437,0.426,0.448,0.455,0.44,0.504,0.451,0.734,0.635
GLRCGYGVLGG [KRTAP20-2_Y15_Y13C],0.825,0.854,0.775,0.73,0.381,0.617,0.359,0.432,0.484,0.484,0.466,0.387,0.612,0.52,0.806,0.572
GMAHNYRNRSQ [AASS_Y188_S191R],0.488,0.629,0.599,0.481,0.344,0.57,0.466,0.523,0.414,0.358,0.487,0.388,0.401,0.48,0.703,0.392
GMIQAYSSSQR [DES_Y5_S2I],0.442,0.509,0.485,0.37,0.384,0.42,0.357,0.412,0.401,0.319,0.346,0.334,0.389,0.759,0.872,0.712
GMKIVYVYVKK [DNAI2_Y5_E2K],0.899,1.12,1.11,0.473,0.479,0.801,0.418,0.459,0.567,0.605,0.466,0.594,0.587,0.646,1.23,0.741
GMTLSYLFWEP [NDUFS8_Y74_R77W],5.21,1.59,1.85,0.659,4.73,1.32,1.43,0.629,0.875,3.7,0.501,0.737,3.63,0.737,0.984,0.916
GNYSGYDDAWD [POLR1C_Y36],1.29,1.32,1.62,0.586,0.723,0.964,0.637,0.578,6.73,0.742,0.597,5.87,0.931,5.84,0.833,0.595
GPKSTYISSAA [GOLGA5_Y62],0.638,0.7,0.731,0.508,0.414,0.488,0.565,0.492,0.331,0.403,0.467,0.506,0.51,0.403,0.715,0.52
GQAPGYSYTAA [CYCS_Y47],0.615,0.665,0.601,0.416,0.43,0.56,0.438,0.502,0.483,0.433,0.471,0.5,0.481,0.791,0.873,0.659
GQDLFYEDEDL [PACS1_Y303],1.43,1.39,1.28,0.598,0.626,0.839,0.746,0.737,0.922,1.79,0.688,0.628,1.24,0.588,0.711,0.636
GREEFYVHFVG [KAT8_Y90_YF],1.37,1.52,1.23,0.693,0.582,0.896,0.559,0.581,0.661,0.513,0.458,0.602,0.841,0.472,0.867,0.621
GRLFAYPDTHR [CAT_Y358],0.605,0.756,0.641,0.356,0.44,0.597,0.344,0.397,0.49,0.476,0.421,0.434,0.538,0.508,0.84,0.909
GTFEDYVEGLR [MYL6_Y89_YF],0.971,1.11,1.08,0.416,0.545,0.688,0.461,0.508,0.534,0.454,0.427,0.534,0.685,0.5,0.9,0.553
GTTIHYNFMCN [TP53_Y234_C229G_YF],1.13,1.32,1.12,0.467,0.544,0.888,0.465,0.532,0.743,0.63,0.477,0.718,0.822,0.603,0.715,0.613
GTYEDYVEGLR [MYL6_Y89],0.885,1.22,1.31,1.43,0.617,0.748,0.513,0.726,1.31,0.579,1.14,1.19,0.743,0.766,0.777,0.645
GVRLYYRVRES [RB1_Y454_M457R],0.964,1.08,1.54,0.285,0.662,0.39,0.403,0.408,0.435,0.483,0.435,0.447,0.781,0.393,0.769,0.872
